The chains are these.
B1: GpH7-A5/GpH7-B3 variant L234_02A/GpL16-k0 (antibody, human IgG1, kappa)
heavy 1: not shown
heavy 2: not shown
light: DIVMTQSPLSLPVTPGEPASISCQASESLVHSNRNTYLHWYLQKPGQSPQLLIYKVSNRFSGVPDRFSGSGSGTDFTLKISRVEAEDVGVYYCSQNTHVPPTFGQGTKVEIERTVAAPSVFIFPPSDEQLKSGTASVVCLLNNFYPREAKVQWKVDNALQSGNSQESVTEQDSKDSTYSLSSTLTLSKADYEKHKVYACEVTHQGLSSPVTKSFNRGEC
notes: He Ab: alteration in the GpH7-B3 H chain only; also called He Ab
B2: GpH7-A5/GpH7-B3 variant L235_19Q/GpL16-k0 (antibody, human IgG1, kappa)
heavy 1: not shown
heavy 2: not shown
light: B1 light
notes: as for B1
B3: GpH7-A5/GpH7-B3 variant L235_13S/GpL16-k0 (antibody, human IgG1, kappa)
heavy 1: not shown
heavy 2: not shown
light: B1 light
notes: as for B1
B4: GpH7-A5/GpH7-B3 variant L235_18N/GpL16-k0 (antibody, human IgG1, kappa)
heavy 1: not shown
heavy 2: not shown
light: B1 light
notes: as for B1
B5: GpH7-A5/GpH7-B3 variant L234_19Q/GpL16-k0 (antibody, human IgG1, kappa)
heavy 1: not shown
heavy 2: not shown
light: B1 light
notes: as for B1
B6: GpH7-A5/GpH7-B3 variant L235_01G/GpL16-k0 (antibody, human IgG1, kappa)
heavy 1: not shown
heavy 2: not shown
light: B1 light
notes: as for B1
B7: GpH7-A5/GpH7-B3 variant L235_14T/GpL16-k0 (antibody, human IgG1, kappa)
heavy 1: not shown
heavy 2: not shown
light: B1 light
notes: as for B1
B8: GpH7-A5/GpH7-B3 variant L235_16H/GpL16-k0 (antibody, human IgG1, kappa)
heavy 1: not shown
heavy 2: not shown
light: B1 light
notes: as for B1
B9: GpH7-A5/GpH7-B3 variant L234_14T/GpL16-k0 (antibody, human IgG1, kappa)
heavy 1: not shown
heavy 2: not shown
light: B1 light
notes: as for B1
B10: GpH7-A5/GpH7-B3 variant P238_01G/GpL16-k0 (antibody, human IgG1, kappa)
heavy 1: not shown
heavy 2: not shown
light: B1 light
notes: as for B1
B11: GpH7-A5/GpH7-B3 variant L234_16H/GpL16-k0 (antibody, human IgG1, kappa)
heavy 1: not shown
heavy 2: not shown
light: B1 light
notes: as for B1
B12: GpH7-A5/GpH7-B3 variant L234_11K/GpL16-k0 (antibody, human IgG1, kappa)
heavy 1: not shown
heavy 2: not shown
light: B1 light
notes: as for B1
B13: GpH7-A5/GpH7-B3 variant L235_11K/GpL16-k0 (antibody, human IgG1, kappa)
heavy 1: not shown
heavy 2: not shown
light: B1 light
notes: as for B1
B14: GpH7-A5/GpH7-B3 variant P238_02A/GpL16-k0 (antibody, human IgG1, kappa)
heavy 1: not shown
heavy 2: not shown
light: B1 light
notes: as for B1
B15: GpH7-A5/GpH7-B3 variant L234_12R/GpL16-k0 (antibody, human IgG1, kappa)
heavy 1: not shown
heavy 2: not shown
light: B1 light
notes: as for B1
B16: GpH7-A5/GpH7-B3 variant L234_05P/GpL16-k0 (antibody, human IgG1, kappa)
heavy 1: not shown
heavy 2: not shown
light: B1 light
notes: as for B1
B17: GpH7-A5/GpH7-B3 variant G236_02A/GpL16-k0 (antibody, human IgG1, kappa)
heavy 1: not shown
heavy 2: not shown
light: B1 light
notes: Heterodimerized IgG1, mutation in the GpH7-B3 chain only; also called He Ab
B18: GpH7-A5/GpH7-B3 variant G236_05P/GpL16-k0 (antibody, human IgG1, kappa)
heavy 1: not shown
heavy 2: not shown
light: B1 light
notes: as for B17
B19: GpH7-A5/GpH7-B3 variant G236_12R/GpL16-k0 (antibody, human IgG1, kappa)
heavy 1: not shown
heavy 2: not shown
light: B1 light
notes: as for B17
B20: GpH7-A5/GpH7-B3 variant G236_07I/GpL16-k0 (antibody, human IgG1, kappa)
heavy 1: not shown
heavy 2: not shown
light: B1 light
notes: as for B17
B21: GpH7-A5/GpH7-B3 variant D265_02A/GpL16-k0 (antibody, human IgG1, kappa)
heavy 1: not shown
heavy 2: not shown
light: B1 light
notes: as for B17
B22: GpH7-A5/GpH7-B3 variant G236_04F/GpL16-k0 (antibody, human IgG1, kappa)
heavy 1: not shown
heavy 2: not shown
light: B1 light
notes: as for B17
B23: GpH7-A5/GpH7-B3 variant D265_03V/GpL16-k0 (antibody, human IgG1, kappa)
heavy 1: not shown
heavy 2: not shown
light: B1 light
notes: as for B17
B24: GpH7-A5/GpH7-B3 variant G236_06M/GpL16-k0 (antibody, human IgG1, kappa)
heavy 1: not shown
heavy 2: not shown
light: B1 light
notes: as for B17
B25: GpH7-A5/GpH7-B3 variant G236_08L/GpL16-k0 (antibody, human IgG1, kappa)
heavy 1: not shown
heavy 2: not shown
light: B1 light
notes: as for B17
B26: GpH7-A5/GpH7-B3 variant G236_03V/GpL16-k0 (antibody, human IgG1, kappa)
heavy 1: not shown
heavy 2: not shown
light: B1 light
notes: as for B17
B27: GpH7-A5/GpH7-B3 variant L235_12R/GpL16-k0 (antibody, human IgG1, kappa)
heavy 1: not shown
heavy 2: not shown
light: B1 light
notes: as for B17

Residue numbers refer to the chain shown, from its start.

The first assay deals with T1, FcγRIIa R (FcγRIIa, allotype R: Arg at position 131) extracellular domain with C-terminal His tag (human, UniProt P12318 34-217).
T1 construct: extracellular domain; also called FcgRIIa R; 2aR; not shown: His tag at the C terminus
T1 sequence (looked up): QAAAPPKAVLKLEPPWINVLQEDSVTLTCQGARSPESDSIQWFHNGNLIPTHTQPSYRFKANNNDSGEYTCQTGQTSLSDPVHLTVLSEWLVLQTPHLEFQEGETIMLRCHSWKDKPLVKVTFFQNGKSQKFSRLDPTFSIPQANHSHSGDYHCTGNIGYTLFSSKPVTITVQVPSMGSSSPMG
The assay is described as follows: ratio He/Con_2aR : He/Con_2b (FcgRIIa R over FcgRIIb), SPR Biacore. Here is the method:
The heterodimerized antibodies He Abs in which one of the H chains was introduced with an alteration were assayed for their binding activities to each activating FcγR and inhibitory FcγR according to the method described in Example 4. […] The activating FcγRs in FIGS. 26, 27, 28, and 29 are FcγRIa, FcγRIIa (R), FcγRIIa (H), and FcγRIIIa, respectively.
Analysis of interaction between objective antibody and the FcγR was carried out using Biacore T100 (GE Healthcare). HBS-EP+ (GE Healthcare) was used as the running buffer, and the measurement temperature was set to 25° C. Chips produced by immobilizing the antigen peptide by the amine coupling method to a Series S Sencor Chip CM5 (GE Healthcare), or alternatively, chips produced by allowing preliminarily biotinylated antigen peptides to interact with and immobilize onto a Series S Sensor Chip SA (certified) (GE Healthcare) were used. Antibodies of interest were captured onto an antigen peptide-immobilized chip, and allowed to interact to each FcγR diluted with running buffer. To regenerate and repeatedly use the chip, the antibodies captured on the chip were washed off by reacting 10 mM glycine-HCl, pH 1.5.
Turning to B1, the “He_2aR/2b (IIaR/IIb)” value stood at 1.23.
On to B2, for which the “He_2aR/2b (IIaR/IIb)” value was found to be 1.32.
Turning to B3, the “He_2aR/2b (IIaR/IIb)” value was found to be 1.36.
On the same count and under the same terms, for B4 the value was 1.21; for B5, 1.24.
Same read-out and setting: for B6 the value was 1.37; for B7, 1.3.
Same read-out and setting: for B8 the value was 1.23; for B9, 1.24; for B10, 1.34.
Regarding B11, the “He_2aR/2b (IIaR/IIb)” value stood at 1.21.
On the same count and under the same terms, as for B12, the figure is 1.66; as for B13, 1.72; as for B14, 1.31.
The same measure, in the same setting: for B15 the value was 1.58; for B16, 1.23.

Another assay deals with T2, FcγRIIa H (human, UniProt P12318 34-217).
T2 construct: extracellular domain; also called FcgRIIa H; FcγRIIa type H; not shown: His tag attached to the C terminus
T2 sequence (looked up): T1 sequence (looked up) with R134H
The assay is described as follows: ratio of He/Con_2aH to He/Con_2b (relative SPR binding to FcγRIIa H over FcγRIIb). Background: SPR reads the build-up and loss of mass on a sensor chip optically.
In the case of B17, the “He_2aH/2b (IIaH/IIb)” value turned out to be 1.44.
The same measure, in the same setting: for B18 the value was 3.34.
In the case of B19, the “He_2aH/2b (IIaH/IIb)” value stood at 5.04.
Still for that read-out and setting: as for B20, the figure is 3.72.
As for B21, the “He_2aH/2b (IIaH/IIb)” value was 1.58.
On the same count and under the same terms, for B22 the value was 3.
The same measure, in the same setting: as for B23, the figure is 1.42; as for B24, 1.88; as for B25, 2.83.
Still for that read-out and setting: as for B26, the figure is 3.39; as for B27, 3.16.

The target in a further assay is T1, FcγRIIa R (FcγRIIa, allotype R: Arg at …). The assay can be described thus: SPR Biacore, antibody captured, FcgR analyte; vs HeCon Ab GpH7-A5/GpH7-B3/GpL16-k0 = 100.
B1: the He/Con_2aR came to 79.6 control = 100.
The same measure, in the same setting: for B2 the value was 56.2 control = 100; for B3, 65.3 control = 100; for B4, 66.5 control = 100.
On the same count and under the same terms, for B5 the value was 75.1 control = 100; for B6, 48.5 control = 100.
Still for that read-out and setting: for B7 the value was 60.7 control = 100.
For the molecule B8, the He/Con_2aR was determined as 94.8 control = 100.
As to B9, the He/Con_2aR is 77.5 control = 100.
Still for that read-out and setting: for B10 the value was 75 control = 100.
Same read-out and setting: for B11 the value was 71.8 control = 100.
On the same count and under the same terms, for B12 the value was 26.8 control = 100.
On to B13, for which the He/Con_2aR is 10.8 control = 100.
Same read-out and setting: for B14 the value was 75.1 control = 100.
On the same count and under the same terms, as for B15, the figure is 29.9 control = 100; as for B16, 89.6 control = 100.

For another assay, the target named is T3, FcγRIIb extracellular domain with C-terminal His tag (human, UniProt P31994 43-217).
T3 construct: extracellular domain; also called FcgRIIb; 2b; not shown: His tag at the C terminus
T3 sequence (looked up): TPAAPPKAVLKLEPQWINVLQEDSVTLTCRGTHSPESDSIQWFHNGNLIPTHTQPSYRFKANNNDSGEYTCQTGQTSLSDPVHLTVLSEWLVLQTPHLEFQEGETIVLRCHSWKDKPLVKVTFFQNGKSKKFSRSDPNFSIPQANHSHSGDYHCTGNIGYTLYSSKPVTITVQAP
The description is as above.
In the case of B1, the He/Con_2b came out at 64.9 control = 100.
Same read-out and setting: for B2 the value was 42.6 control = 100; for B3, 48.2 control = 100; for B4, 54.9 control = 100.
The same measure, in the same setting: as for B5, the figure is 60.3 control = 100; as for B6, 35.4 control = 100; as for B7, 46.8 control = 100.
Still for that read-out and setting: as for B8, the figure is 76.9 control = 100.
B9: the He/Con_2b amounted to 62.5 control = 100.
On the same count and under the same terms, as for B10, the figure is 56 control = 100; as for B11, 59.4 control = 100; as for B12, 16.2 control = 100.
Still for that read-out and setting: as for B13, the figure is 6.3 control = 100.
The same measure, in the same setting: as for B14, the figure is 57.4 control = 100; as for B15, 18.9 control = 100.
Molecule B16 came in with a He/Con_2b of 72.9 control = 100.

A further assay deals with T2, FcγRIIa H. The assay is described as follows: SPR (Biacore), antibody captured, FcγR as analyte; binding relative to GpH7-A5/GpH7-B3/GpL16-k0 = 100.
In turn, B17 had a He/Con_2aH of 139 control = 100.
Still for that read-out and setting: for B18 the value was 63.5 control = 100; for B19, 34.2 control = 100; for B20, 115 control = 100.
Same read-out and setting: for B21 the value was 31.3 control = 100; for B22, 118 control = 100.
B23 displayed a He/Con_2aH of 4.6 control = 100.
The same measure, in the same setting: as for B24, the figure is 85.7 control = 100; as for B25, 75.8 control = 100.
The same measure, in the same setting: for B26 the value was 119 control = 100; for B27, 30.3 control = 100.

In a further assay the target is T4, FcγRIIb (human, UniProt P31994 43-217).
T4 construct: extracellular domain; also called FcgRIIb; 2b; not shown: His tag attached to the C terminus
T4 sequence (looked up): T3 sequence (looked up)
The assay is described as above.
B17 gave a He/Con_2b of 96.5 control = 100.
On the same count and under the same terms, as for B18, the figure is 19 control = 100; as for B19, 6.8 control = 100; as for B20, 31 control = 100.
On to B21, for which the He/Con_2b turned out to be 19.9 control = 100.
Same read-out and setting: for B22 the value was 39.3 control = 100; for B23, 3.2 control = 100.
The same measure, in the same setting: as for B24, the figure is 45.5 control = 100; as for B25, 26.8 control = 100; as for B26, 35.3 control = 100.

The record behind these values is patent US20180155451A1 (published 2018).
